Experimental data from paper PMC4422259, “Arc is a flexible modular protein capable of reversible self-oligomerization” (Biochemical Journal, 2015).

Key:
[1] = molecular target: the molecule itself; test: dynamic light scattering; hArc 22 μM (1 mg/ml) in 10 mM potassium phosphate, pH 7.4, without salt, at 20°C and 90°C
[2] = molecular target: the molecule itself; test: dynamic light scattering; hArc 22 μM (1 mg/ml) in 10 mM potassium phosphate, pH 7.4, at 36°C

B1: recombinant human Arc (activity-regulated cytoskeleton-associated protein), wild type, cleaved from the His-ZZ-hArc fusion protein (natural protein, UniProt Q7LC44 1-396, looked up)
chain: MELDHRTSGGLHAYPGPRGGQVAKPNVILQIGKCRAEMLEHVRRTHRHLLAEVSKQVERELKGLHRSVGKLESNLDGYVPTSDSQRWKKSIKACLCRCQETIANLERWVKREMHVWREVFYRLERWADRLESTGGKYPVGSESARHTVSVGVGGPESYCHEADGYDYTVSPYAITPPPAAGELPGQEPAEAQQYQPWVPGEDGQPSPGVDTQIFEDPREFLSHLEEYLRQVGGSEEYWLSQIQNHMNGPAKKWWEFKQGSVKNWVEFKKEFLQYSEGTLSREAIQRELDLPQKQGEPLDQFLWRKRDLYQTLYVDADEEEIIQYVVGTLQPKLKRFLRHPLPKTLEQLIQRGMEVQDDLEQAAEPAGPHLPVEDEAETLTPAPNSESVASDRTQPE
notes: human Arc (activity-regulated cytoskeleton-associated protein); called full-length hArc; Vector pETZZ_1a; also called WT hArc; Arc/Arg3.1; source: E. coli BL21-CodonPlus, auto-induction medium, purified (Ni-NTA, TEV cleavage, second Ni-NTA flow-through); not shown: His, N-terminal, cleaved; ZZ domain, N-terminal, cleaved
[1]
  stoichiometry N: ≥ 40 subunits
[2]
  stoichiometry N: > 12 subunits
